Here are results for 1 substance from patent US20210244792A1.

This experiment concerns the target complement C5. Kind of experiment: direct binding to C5 (FIG. 4C); method not described.

Broadly, the IC50 is the concentration needed to halve the response being measured. A lower IC50 goes with higher potency.

“EV576 protein (native, purified from salivary gland extracts of the soft tick Ornithodoros moubata) (from UniProt Q5YD59 19-168)” gave an IC50 of 20 µg/mL.
